Test results taken from paper PMC3626704 (BMC Biochemistry, 2013).
Where a chain is given by its changes, count along the chain named.

B1: 25F1 bivalent scFv on phage (scFv, V domains shown)
VH: QVQLVQSGAEVRKPGASVKVSCKASGDTFSSYAISWVRQAPGQGLEWMGGIIPIFGTANYAQAFQGRVTITANESTSTAYMELSSLRSEDTAIYYCARDNPTLLGSDYWGAGTLVTVSS
VL: DIQMTQSPSTLSASIGDRVTITCRASEGINNSLAWYQQKPGKAPKLLISRASRLASGAPSRFSGSGSGTDFTLTISSLQPDDFATYYCQQYSSTPHTFGGGTKLEIK
B2: 25C10 bivalent scFv on phage (scFv, V domains shown)
VH: B1 VH
VL: B1 VL with G28N, N30Y, N31G, S32N, Y91R, S92Y, S93T, T94Y, H96L
B3: 25D9 bivalent scFv on phage (scFv, V domains shown)
VH: B1 VH
VL: B1 VL with G28D, N30L, N31G, S32R, S49Y, Y91R, S92A, S93N, T94Y, H96L
B4: 25D8 bivalent scFv on phage (scFv, V domains shown)
VH: B1 VH
VL: B1 VL with N30S, N31S, S32N, S52Y, Y91R, S92A, S93T, T94Y, H96L
B5: 25C12 bivalent scFv on phage (scFv, V domains shown)
VH: B1 VH
VL: B1 VL with G28D, N30S, N31S, S32V, S49Y, R50N, Y91R, S92A, S93N, T94N
B6: 25D3 bivalent scFv on phage (scFv, V domains shown)
VH: B1 VH
VL: DIQMTQSPSTLSASIGDRVTITCRASENIHRRLAWYQQKPGKAPKLLIYSAYSLASGAPSRFSGSGSGTDFTLTISSLQPDDFATYYCQQNSDYPHTFGGGTKLEIK
B7: 25F10 bivalent scFv on phage (scFv, V domains shown)
VH: B1 VH
VL: B1 VL with N30H, S32R, R50H, R53N, S93N, T94Y, H96L
B8: 25G8 bivalent scFv on phage (scFv, V domains shown)
VH: B1 VH
VL: B1 VL with G28S, N30G, N31R, S49Y, Y91S, S93T, H96L
B9: 25A10 bivalent scFv on phage (scFv, V domains shown)
VH: B1 VH
VL: B1 VL with G28S, N30S, N31H, S32N, R50N, S93N, T94Y, H96L
B10: 25A12 bivalent scFv on phage (scFv, V domains shown)
VH: B1 VH
VL: B6 VL with N28G, R32Y, S50H, Y52S, S53R, N91R, S92A, D93N, H96Y
B11: 25B6 bivalent scFv on phage (scFv, V domains shown)
VH: B1 VH
VL: B1 VL with G28N, N30R, N31S, S32G, S49Y, S92D, S93D, T94Y
B12: 25C6 bivalent scFv on phage (scFv, V domains shown)
VH: B1 VH
VL: B6 VL with H30S, R31S, Y49S, S50N, S53H, N91R, D93N
B13: 25D6 bivalent scFv on phage (scFv, V domains shown)
VH: B1 VH
VL: B1 VL with G28N, N30Y, N31S, S32N, R50S, Y91N, S93N, T94N
B14: D5 scFv, purified monovalent (scFv, V domains shown)
VH: B1 VH
VL: B1 VL with N30Y, N31H, S32W, S49Y, R50K, R53S, S93N, T94Y, H96L
B15: 25B6 scFv, purified monovalent (scFv, V domains shown)
VH: B1 VH
VL: B1 VL with G28N, N30R, N31S, S32G, S49Y, S92D, S93D, T94Y
B16: 25A10 scFv, purified monovalent (scFv, V domains shown)
VH: B1 VH
VL: B1 VL with G28S, N30S, N31H, S32N, R50N, S93N, T94Y, H96L
B17: 25A12 scFv, purified monovalent (scFv, V domains shown)
VH: B1 VH
VL: B6 VL with N28G, R32Y, S50H, Y52S, S53R, N91R, S92A, D93N, H96Y
B18: 25C10 scFv, purified monovalent (scFv, V domains shown)
VH: B1 VH
VL: B1 VL with G28N, N30Y, N31G, S32N, Y91R, S92Y, S93T, T94Y, H96L

These binders were tested against T1, 5-Helix (HIV-1 group M subtype B, HXB2 (gp41 …, stabilised)) (assay: ELISA). Details: one partner purified.
T1 construct: also called designed protein based on HIV-1 gp41
B1 was tested, and the “F_competitive (signal with 40 nM free 5-Helix / signal without)” value was 0.1 fraction and the “phage ELISA signal OD450” value was 2.3 OD450. With B2 the “F_competitive (signal with 40 nM free 5-Helix / signal without)” value was 0.1 fraction and the “phage ELISA signal OD450” value was 3.2 OD450. With B3 the “F_competitive (signal with 40 nM free 5-Helix / signal without)” value was 0.2 fraction and the “phage ELISA signal OD450” value was 3 OD450. B4 was tested, and the “F_competitive (signal with 40 nM free 5-Helix / signal without)” value was 0.2 fraction and the “phage ELISA signal OD450” value was 3.2 OD450. B5 was tested, and the “F_competitive (signal with 40 nM free 5-Helix / signal without)” value was 0.3 fraction and the “phage ELISA signal OD450” value was 2.2 OD450. B6 was tested, and the “F_competitive (signal with 40 nM free 5-Helix / signal without)” value was 0.1 fraction and the “phage ELISA signal OD450” value was 1.6 OD450. With B7 the “F_competitive (signal with 40 nM free 5-Helix / signal without)” value was 0.1 fraction and the “phage ELISA signal OD450” value was 1.7 OD450. In the case of B8, the “F_competitive (signal with 40 nM free 5-Helix / signal without)” value is reported as 0.1 fraction and the “phage ELISA signal OD450” value is reported as 2.1 OD450. For B9, the “F_competitive (signal with 40 nM free 5-Helix / signal without)” value was 0.1 fraction and the “phage ELISA signal OD450” value was 3.2 OD450. For B10, the “F_competitive (signal with 40 nM free 5-Helix / signal without)” value was 0.1 fraction and the “phage ELISA signal OD450” value was 3.2 OD450. In the case of B11, the “F_competitive (signal with 40 nM free 5-Helix / signal without)” value is reported as 0.1 fraction and the “phage ELISA signal OD450” value is reported as 1.4 OD450. B12 was tested, and the “F_competitive (signal with 40 nM free 5-Helix / signal without)” value was 0.2 fraction and the “phage ELISA signal OD450” value was 1.8 OD450. With B13 the “F_competitive (signal with 40 nM free 5-Helix / signal without)” value was 0.1 fraction and the “phage ELISA signal OD450” value was 1.6 OD450.

What follows are binders tested against T1, 5-Helix (assay: ELISA). Details: both partners purified.
With B14 the IC50 was 7.3 nM. B15 showed an IC50 of 0.6 nM. Work on B16 yielded an IC50 of 5.4 nM. For B17, the IC50 was 34 nM. B18 was tested, and the IC50 was 56 nM.

Biological target: T2, 6-Helix-Fd (HIV-1 gp41 (HXB2-like, printed sequence), stabilised)
T2 construct: also called post-fusion six-helix bundle mimic
T2 chain: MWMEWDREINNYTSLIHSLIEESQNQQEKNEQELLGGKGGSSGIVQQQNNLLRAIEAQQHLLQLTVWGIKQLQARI
Assay: ELISA
Details: both partners purified
Work on B14 yielded an IC50 of 290 nM. In the case of B15, the IC50 is reported as 94 nM. For B16, the IC50 was ~500 nM. B17 gave an IC50 of 280 nM.

What follows are binders tested against T1, 5-Helix (assay: ELISA; competitive phage ELISA, on-phage bivalent scFv: binding to immobilised 5-Helix inhibited by free 5-Helix or free 6-Helix-Fd (concentrations for the trimer); apparent). Details: one partner purified.
B1 was tested, and the IC50 was 0.9 nM. B2 gave an IC50 of 1.8 nM. Binder B3 has an IC50 of 1.7 nM. B4 was tested, and the IC50 was 5.8 nM. B5 showed an IC50 of 100 nM. B6 showed an IC50 of 17 nM. B7 was tested, and the IC50 was 0.2 nM. In the case of B8, the IC50 is reported as 7.2 nM. Binder B9 has an IC50 of 1.6 nM. B10 was tested, and the IC50 was 2.2 nM. Work on B11 yielded an IC50 of 0.3 nM. In the case of B12, the IC50 is reported as 32 nM. In the case of B13, the IC50 is reported as 0.5 nM.

Biological target: T2, 6-Helix-Fd
Assay: as above
Details: one partner purified
B1 showed an IC50 of 40 nM. Work on B2 yielded an IC50 of 28 nM. Work on B3 yielded an IC50 of 230 nM. In the case of B4, the IC50 is reported as ~3000 nM. For B5, the IC50 was ~1000 nM. Binder B6 has an IC50 of 170 nM. B7 was tested, and the IC50 was 22 nM. With B8 the IC50 was 300 nM. B9 gave an IC50 of 260 nM. B10 showed an IC50 of 220 nM. B11 gave an IC50 of 23 nM. B12 was tested, and the IC50 was ~1000 nM. For B13, the IC50 was ~80 nM.
